System: MS2 coat protein
Assay: apparent KD of MS2 coat protein; designed switch direction (-1 OFF switch, 1 ON switch): 1; higher = weaker reporter binding
How it was run: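 Designed RNA switches were transcribed on Illumina chips by stalled E. coli RNA polymerase and titrated with SNAP-549-labelled MS2 coat protein from 0.7 or 1.5 nM, doubling to 3 µM. Step length ran from 0.8–1.5 h at the lowest concentration to 10–20 min at the highest. The apparent KD is the median over clusters for each design, from curve-fitted normalised cluster fluorescence.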

[1] = input ligand: microRNA oligo, concentration not stated
[2] = Eterna round: R95, input ligand: FMN 200 uM
[3] = Eterna round: R95, input ligand: microRNA oligo, concentration not stated
[4] = Eterna round: R95, input ligand: none

| Sequence | apparent KD of MS2 coat protein (input ligand: FMN 200 uM) | apparent KD of MS2 coat protein [1] | apparent KD of MS2 coat protein (input ligand: none) | apparent KD of MS2 coat protein [2] | apparent KD of MS2 coat protein [3] | apparent KD of MS2 coat protein [4] |
| --- | --- | --- | --- | --- | --- | --- |
| GGUAGGUUACUACCAACACAUGAGGAUCACCCAUGUUUUCAUGAGGAUAUGGUACCUAUUUGGUACCAGAAGGCAUGGUUAAUU [Fiskers NG3ss - 18] (Eterna round: R96, puzzle: Same State NG 3) | 48.6 nM | 76.8 nM | 104 nM |  |  |  |
| GGUAGGUUACUACCAAUCUACAUGAGGAUCACCCAUGUGUGGAAGGAUAUGGUACCUAUUUGGUACCAGAAGGUCCAAUUAAUU [Fiskers NG3ss - 7] (Eterna round: R96, puzzle: Same State NG 3) | 179 nM | 64.7 nM | 153 nM |  |  |  |
| GGUAGGUUACUACCAGACAUGAGGAUCACCCAUGUAAGUGGGAAGGAUAUGGUACCGUUUCGGUACCAGAAGGUCCUAAAUGAG [JL SSNG3 1.46] (Eterna round: R96, puzzle: Same State NG 3) | 332 nM | 1650 nM | 1220 nM |  |  |  |
| GGUAGGUUACUACCAGACAUGAGGAUCACCCAUGUAAGUGGGAAGGAUAUGGUACCUUUUAGGUACCAGAAGGUCCAUAUAUUC [JL SSNG3 1.44] (Eterna round: R96, puzzle: Same State NG 3) | 178 nM | 637 nM | 849 nM |  |  |  |
| GGUAUCGACACAGGAUAUGCUAUCCUUUGGGUAGCAGAAGGGUGGACAUGAGGAUCACCCAUGUGGGUGCCAGGGCGUGAGCCC [JL SSNG1 1.84] (Eterna round: R96, puzzle: Same State NG 1) | 234 nM | 21.1 nM | 1040 nM |  |  |  |
| GGUAUCGACGCAGGAUAUGCUAUCCUUUGGGUAGCAGAAGGGUGGACAUGAGGAUCACCCAUGUGGGUGCCAGGGCGUGAGCCC [JL SSNG1 1.83] (Eterna round: R96, puzzle: Same State NG 1) | 283 nM | 12.8 nM | 440 nM |  |  |  |
| GGUCCAGCCUGAGCUGGACAAAAGCAUGUACAUGAGGAUCACCCAUGUCAUGUACAAGCUUUUUGCUCGUCUAAAUG [Mat - hsa-mir-208a - 93] (puzzle: Sensor for hsa-mir-208a) |  |  |  | 802 nM | 21.7 nM | 758 nM |
| GGUCCAGCCUGAGCUGGACAAAAGCAUGUACAUGAGGAUCACCCAUGUCAUGUACAAGCUUUUUGCUCGUCUUAAAA [Mat - Sensor - JL mod - D87] (Eterna round: R96, puzzle: Sensor for hsa-mir-208a) | 586 nM | 14.2 nM | 573 nM |  |  |  |
| GGUCCAGCCUGAGCUGGACAAAAGCAUGUACAUGAGGAUCACCCAUGUCAUGUACAAGCUUUUUGUUCGUCUUAAAA [JL mod - D87 - 13] (puzzle: Sensor for hsa-mir-208a) |  |  |  | 420 nM | 15.6 nM | 344 nM |
| GGUCCAGCCUGAGCUGGACUAUAGCAUGUACAUGAGGAUCACCCAUGUCAUGUACAAGUAUGUUGUUUGUCUUGAAA [Sensorship 6 - Jieux - Sensor for hsa-mir-208a] (puzzle: Sensor for hsa-mir-208a) |  |  |  | 21.4 nM | 15.3 nM | 20.2 nM |
| GGUCCAGCCUGAGCUGGACUAUAGUAUGUACAUGAGGAUCACCCAUGUCAUGUACAAGUAUGUUGUUUGUCUUGAAA [Sensorship 5 - Jieux - Sensor for hsa-mir-208a] (puzzle: Sensor for hsa-mir-208a) |  |  |  | 72.3 nM | 65.4 nM | 103 nM |
| GGUGGGUUACUACCCACACAUGAGGAUCACCCAUGUAUUGGGAAGGAUAUGGUACCUAUUUGGUACCAGAAGGUCCUGAAGGUG [SS-NG3-LRO16] (Eterna round: R96, puzzle: Same State NG 3) | 638 nM | 545 nM | 1170 nM |  |  |  |
| GGUUUAGCCAGGCGCAAUUGCGCCUGAAAACAUGAGGAUCACCCAUGUUUGGGACAAGCUUUGCUCCUCGUCUUGCA [Edreisza] (puzzle: Sensor for hsa-mir-208a) |  |  |  | 243 nM | 41.9 nM | 330 nM |
| GUAAAACAUGAGGAUCACCCAUGUAAUAAUAUGGGAGGAUAUCAGAUUUAAUUUAAUUUAUGAGAAGGCCUAAAUG [Mat - Same State 1 - Mod of Eli - D59] (puzzle: Same State 1) |  |  |  | 57.4 nM | 181 nM | 427 nM |
| GUAACAUGACGAGGAUAUGGUACAUGAGGAUCACCCAUGUAUGUACCACGACGCGUACGUCGAAUCCAGAAGGCGUCGUGAAUG [Mat - Same State NG 2 - JL mod - D21] (Eterna round: R96, puzzle: Same State NG 2) | 26.5 nM | 68.5 nM | 70.1 nM |  |  |  |
| GUACGUGCAACGUAGGAUAUCCACGACACGACAUGAGGAUCACCCAUGUCAAGGCUUAAAAGUCGGGAGAAGGGCGAACCACGGA [Xereenge] (puzzle: Same State 2) |  |  |  | 14.5 nM | 15.9 nM | 19.2 nM |
| GUAGAAGAACUAGAGGAUAUCCGAGUGGUAACAUGAGGAUCACCCAUGUGAUGAAAGGAACAUGAGGAGAAGGCUAGAAUGAAUG [Mat - Same State 2 - Mod of JL - D83] (puzzle: Same State 2) |  |  |  | 24.7 nM | 45.7 nM | 79.2 nM |
| GUAGAAUAACUAGAGGAUAUCCGAGUGGUAACAUGAGGAUCACCCAUGUGAUGAAAGGAACAUGAGGAGAAGGCUAGAAUGAAUG [Mat - Same State 2 - Mod of JL - D84] (puzzle: Same State 2) |  |  |  | 23.4 nM | 38.4 nM | 88.3 nM |
| GUAGAUGUAGAGGAGGAUAUUCAAUAGAGAACAUGAGGAUCACCCAUGUAAGAGAGAGAUGAUGGGAAGAAGGCUUAGAGAGAUG [Altered State 2-1 - Jieux - Same State 2] (puzzle: Same State 2) |  |  |  | 72.2 nM | 76.6 nM | 94.8 nM |
| GUAGCAUACCGAGGAUAUUCAUAUAAUACAUGAGGAUCACCCAUGUUAUAUAGGCGAAAGCCUUGGGAGAAGGCGGAAUGCUAC [Xeonanis - 20 Mod65] (Eterna round: R96, puzzle: Same State NG 2) |  | 10.9 nM |  |  |  |  |
| GUAGCAUACCGAGGAUAUUCAUAUUAAAUACAUGAGGAUCACCCAUGUAAGGCCAAAAGGCCUUGGGAGAAGGCGGAAUGCUAC [Xeonanis - 20 Mod3] (Eterna round: R96, puzzle: Same State NG 2) | 20.7 nM | 32.5 nM | 67.3 nM |  |  |  |
| GUAGCAUACCGAGGAUAUUCAUAUUAAAUUACAUGAGGAUCACCCAUGUAGGCCAAAAGGCCUUGGGAGAAGGCGGAAUGCUAC [Xeonanis - 20 Mod1] (Eterna round: R96, puzzle: Same State NG 2) | 18.8 nM | 89.3 nM | 102 nM |  |  |  |

From the supplement of paper PMC9170038
